This is an account of results in paper PMC8460140 (2021).

In general, Kd refers to the concentration at which binding is half-saturated.

In the assay the target is T1, His6-tagged CB1R-CTD (amino acids 400-472), labeled with 5-IAF (UniProt P21554 400-472, labeled with 5-(iodoacetamido)fluorescein (5-IAF); labeled residue not stated).
T1 chain: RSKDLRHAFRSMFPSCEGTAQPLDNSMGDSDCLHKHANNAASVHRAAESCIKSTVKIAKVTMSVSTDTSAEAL
Nature of the assay: FP.

B1: His6-tagged BiP, recombinant (natural protein)
chain: not shown
B1 returned a Kd of 17.7 µM.

B2: His6-tagged BiP-IR (amino acids 497-654), recombinant (domain or fragment)
chain: IEVTFEIDVNGILRVTAEDKGTGNKNKITITNDQNRLTPEEIERMVNDAEKFAEEDKKLKERIDTRNELESYAYSLKNQIGDKEKLGGKLSSEDKETMEKAVEEKIEWLESHQDADIEDFKAKKKELEEIVQPIISKLYGSAGPPPTGEEDTAEKDEL
Turning to B2, the affinity, expressed as Kd, was 17.3 µM.
